{"source": "paper doi:10.1101/2020.02.26.966614", "molecular_target": "MICAL1-oxidized actin filaments (alpha-skeletal actin, rabbit) (rabbit) (UniProt P68135)", "test": "single-filament microfluidics with fluorescence microscopy"}
{"substance": "eGFP-S3D-cofilin-1 (from UniProt P18760 1-166) (natural protein)", "values": [{"measurement": "growth rate of single cofilin-1 domains, normalized by the cofilin concentration", "value": 10, "unit": "sub/s/µM"}]}
